Data from patent US10786543B2, “P75NTR antagonists and treatment of acute and chronic cardiac disease” (THE JOHNS HOPKINS UNIVERSITY, priority 2015, dated 2020).
Ends that are not written are not given here.

T1: p75^NTR (Mus musculus, UniProt Q9Z0W1)
T1 construct: from tissue; host or cells: living mice (heart and other tissues) after transverse aortic constriction
T1 sequence (Q9Z0W1 32-427): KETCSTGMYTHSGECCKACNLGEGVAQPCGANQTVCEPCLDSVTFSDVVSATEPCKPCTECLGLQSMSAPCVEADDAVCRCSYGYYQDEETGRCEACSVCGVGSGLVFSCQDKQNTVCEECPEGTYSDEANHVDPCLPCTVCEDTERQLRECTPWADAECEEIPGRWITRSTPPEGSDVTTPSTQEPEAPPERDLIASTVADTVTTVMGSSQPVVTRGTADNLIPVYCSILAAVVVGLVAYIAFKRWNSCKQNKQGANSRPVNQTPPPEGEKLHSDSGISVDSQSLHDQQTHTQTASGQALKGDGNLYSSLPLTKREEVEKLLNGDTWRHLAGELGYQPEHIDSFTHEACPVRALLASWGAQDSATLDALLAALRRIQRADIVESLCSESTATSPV

B1: proBDNF: uncleaved (immature) neurotrophin, pro-brain derived neurotrophic factor, activates p75^NTR (protein, UniProt P23560 19-247, looked up)
pro-form: APMKEANIRGQGGLAYPGVRTHGTLESVNGPKAGSRGLTSLADTFEHVIEELLDEDQKVRPNEENNKDADLYTSRVMLSSQVPLEPPLLFLLEEYKNYLDAANMSMRVRRHSDPARRGELSVCDSISEWVTAADKKTAVDMSGGTVTVLEKVPVSKGQLKQYFYETKCNPMGYTKEGCRGIDKRHWNSQCRTTQSYVRALTMDSKKRIGWRFIRIDTSCVCTLTIKRGR
modifications: pro-form

Key:
p75^NTR = molecular target: T1, p75^NTR; assay: Transverse aortic constriction (TAC) pressure overload/heart failure with chronic P75NTR antagonist infusion, echocardiography; type: in vivo; details: TAC mice; chronic infusion for 5 weeks, instituted 1 week after TAC; 200 μg/kg/day s.c. osmotic pump; FIG. 3
Description: Transverse aortic constriction (TAC) was performed following a previously reported protocol (J. Clin. Invest., 2005; 115(5):1221-31; Circ. Res., 2010; 106(1):193-202; Antioxid Redox Signal 2014; 20(2):267-80). After induction of anesthesia and intubation, mice were placed on a volume ventilator (120 breaths/min, 1.2 ml/g/min) and anesthesia was maintained with […] isofluorane. The aortic arch was isolated and tied against a 27-gauge needle, resulting in a 65-70% constriction after the removal of the needle. The chest and skin were closed and animals extubated and allowed to fully recover. Sham-operated mice underwent the same operation except that after the aortic arch was isolated, no ligature was placed. The ALZET osmotic pump (Model 2004) with P75^NTR peptidic antagonist (200 μg/kg/day) or saline vehicle was placed subcutaneously one week after TAC. P75^NTR antagonistic cyclic peptide (CATDIKGAEC) (SEQ ID NO: 1) was synthesized at the Johns Hopkins Synthesis and Sequencing Facility. […]
In vivo cardiac morphology and function were assessed by serial M-mode echocardiography (Acuson Sequioa C256, 13 MHz transducer, Siemens, Pa.) performed in conscious mice. […] LV percent FS, EF and LV mass were calculated as described previously. […]

[1] = system: isolated healthy mouse myocytes; assay: Sarcomere shortening and whole Ca^2+ transient in isolated healthy mouse myocytes; type: cell-based; details: directly applied to isolated healthy mouse myocytes
Description: Isolation of rat and mouse ventricular myocytes was carried out as previously described and approved by the Animal Care and Use Committee of Johns Hopkins University. Mice were anesthetized with intraperitoneal pentobarbital sodium (100 mg/kg). To assess for sarcomere shortening, cells were imaged using field stimulation (0.5 Hz) in an inverted fluorescence microscope (Diaphot 200; Nikon, Inc). Sarcomere length was measured by real-time Fourier transform (IonOptix MyoCam, CCCD100M). Twitch amplitude is expressed as a percentage of resting cell length. Twitch kinetics was quantified by measuring the time to peak shortening and the time from peak shortening to 50% relaxation. For whole Ca^2+ transient measurements, myocytes were loaded with the Ca^2+ indicator fluo-4/A M (Molecular Probes, 20 μM for 30 min) and Ca^2+ transients were measured under field-stimulation (0.5 Hz) in perfusion solution by confocal laser scanning microscope (LSM510, Carl Zeiss). Digital image analysis used customer-designed programs coded in Interactive Data Language (IDL).

[2] = system: isolated p75^NTR-/- whole hearts; assay: LV function and coronary tone in Langendorff-perfused isolated p75^NTR-/- whole hearts infused with proBDNF; design: species or system mouse; details: hearts of mice lacking p75^NTR; FIG. 7
Description: (§1) After anesthesia, hearts were harvested and the aorta cannulated and retrogradely perfused with Krebs-Henseleit (KH) buffer warmed and gassed with 95% O2 and 5% CO2, as reported previously (Antioxid. Redox Signal, 2013; 19(11):1185-97). Briefly, hearts were paced at 600 bpm (10 Hz, 4 ms duration, 4 V) and LV function monitored with a water-filled balloon, connected to a pressure transducer coupled to a continuous data recording system. After stabilization, in addition to LV function parameters, baseline values of coronary perfusion pressure (CPP) were obtained through a side-arm of the aortic cannula connected to a separate pressure transducer.

control mouse hearts = assay: LV function and coronary tone in Langendorff-perfused control mouse hearts infused with proBDNF
Description: as §1

LV ejection fraction (p75^NTR)	Molecule	amplitude of the whole Ca^2+ transient ([1]; FIGS. 5 and 6 lower panels)	diastolic Ca^2+ levels ([1]; FIGS. 5 and 6 lower panels)	contractility (extent of sarcomere shortening) ([1]; FIGS. 5 and 6 upper panels)	LV function [2]	coronary vascular tone [2]	coronary perfusion pressure (CPP), vasoconstriction (control mouse hearts; FIG. 4A)	overall left-ventricle (LV) function: relaxation (control mouse hearts; FIG. 4F)	overall left-ventricle (LV) function: contractility (control mouse hearts; FIGS. 4B, D and E)
preserved	CATDIKGAEC (also: cyclic)	–	–	–	–	–	–	–	–
–	B1	reduces	rise	reduces	does not alter	does not alter	markedly higher	reducing	reducing
